Measurements reported in the RNAGym collection of RNA variant scans (doi:10.7554/elife.80360).

B1: HDV Ribozyme (parent)
chain: GGCCGGCAUGGUCCCAGCCUCCUCGCUGGCGCCGGCUGGGCAACAUUCCGAGGGGACCGUCCCCUCGGUAAUGGCGAAUGGGACCCA

Variants of: B1
Assay: self-cleavage, relative activity (ratio to wild type); higher = more cleavage; co-transcriptional
Work on GGCCGGCAUGGUCCCAGCAUCCUCGCUGGCGCCGGCUGGGCAACCUUCCGAGGGGACCGUCCCCUCGGUAAUGGCGAAUGGGACCCA yielded a self-cleavage of 0.0755. Variant GGCCGGCAUGGUCCCAGCAUCCUCGCUGGCGCCGGCUGGGCAACGUUCCGAGGGGACCGUCCCCUCGGUAAUGGCGAAUGGGACCCA has a self-cleavage of 0.0369. In the case of GGCCGGCAUGGUCCCAGCAUCCUCGCUGGCGCCGGCUGGGCAACUUUCCGAGGGGACCGUCCCCUCGGUAAUGGCGAAUGGGACCCA, the self-cleavage is reported as 0.199. Work on GGCCGGCAUGGUCCCAGCAUCCUCGCUGGCGCCGGCUGGGCAACAUUCCGAGGGGACCGUCCCCUCGGUAAUGGCGAAUGGGACCCA yielded a self-cleavage of 0.123. GGCCGGCAUGGUCCCAGCAUCCUCGCUGGCGCCGGCUGGGCAACAUUCCGAGGGGACCGUCCCCUCGGUAUUGGCGAAUGGGACCCA gave a self-cleavage of 0.0978. In the case of GGCCGGCAUGGUCCCAGCAUCCUCGCUGGCGCCGGCUGGGCAACAUUCCGAGGGGACCGUCCCCUCGGUAGUGGCGAAUGGGACCCA, the self-cleavage is reported as 0.136. Work on GGCCGGCAUGGUCCCAGCAUCCUCGCUGGCGCCGGCUGGGCAACAUUCCGAGGGGACCGUCCCCUCGGUACUGGCGAAUGGGACCCA yielded a self-cleavage of 0.0396. GGCCGGCAUGGUCCCAGCAUCCUCGCUGGCGCCGGCUGGGCAACAUUCCGCGGGGACCGUCCCCUCGGUAAUGGCGAAUGGGACCCA gave a self-cleavage of 0.0733. In the case of GGCCGGCAUGGUCCCAGCAUCCUCGCUGGCGCCGGCUGGGCAACAUUCCGUGGGGACCGUCCCCUCGGUAAUGGCGAAUGGGACCCA, the self-cleavage is reported as 0.175. GGCCGGCAUGGUCCCAGCAUCCUCGCUGGCGCCGGCUGGGCAACAUUCCGGGGGGACCGUCCCCUCGGUAAUGGCGAAUGGGACCCA showed a self-cleavage of 0.0712. Work on GGCCGGCAUGGUCCCAGCAUCCUCGCUGGCGCCGGCUGGGCAACAUUCCGAGGGGACCGUCCCCUCGGUCAUGGCGAAUGGGACCCA yielded a self-cleavage of 0.0573. In the case of GGCCGGCAUGGUCCCAGCAUCCUCGCUGGCGCCGGCUGGGCAACAUUCCGAGGGGACCGUCCCCUCGGUUAUGGCGAAUGGGACCCA, the self-cleavage is reported as 0.277. For GGCCGGCAUGGUCCCAGCAUCCUCGCUGGCGCCGGCUGGGCAACAUUCCGAGGGGACCGUCCCCUCGGUGAUGGCGAAUGGGACCCA, the self-cleavage was 0.136. GGCCGGCAUGGUCCCAGUCUCCUCGCUGGCGCCGGCUGGGCAACAUUCCGAGGGGACCGUCCCCUCGGUAAUGGCGAACGGGACCCA showed a self-cleavage of 0.168. In the case of GGCCGGCAUGGUCCCAGUCUCCUCGCUGGCGCCGGCUGGGCAACAUUCCGAGGGGACCGUCCCCUCGGUAAUGGCGAAAGGGACCCA, the self-cleavage is reported as 0.178. Variant GGCCGGCAUGGUCCCAGCAUCCUCGCUGGCGCCGGCUGGGCUACAUUCCGAGGGGACCGUCCCCUCGGUAAUGGCGAAUGGGACCCA has a self-cleavage of 0.0216. Work on GGCCGGCAUGGUCCCAGCAUCCUCGCUGGCGCCGGCUGGGCCACAUUCCGAGGGGACCGUCCCCUCGGUAAUGGCGAAUGGGACCCA yielded a self-cleavage of 0.026. For GGCCGGCAUGGUCCCAGCAUCCUGGCUGGCGCCGGCUGGGCAACAUUCCGAGGGGACCGUCCCCUCGGUAAUGGCGAAUGGGACCCA, the self-cleavage was 0.158. With GGCCGGCAUGGUCCCAGCAUCCUCGCUGGCGCCGGCUGGGCAACAUUCCGAGGGGACCGUCCCCUCGGUAAUGGCGUAUGGGACCCA the self-cleavage was 0.145. For GGCCGGCAUGGUCCCAGCAUCCUCGCUGGCGCCGGCUGGGCAACAUUCCGAGGGGACCGUCCCCUCGGUAAUGGCGCAUGGGACCCA, the self-cleavage was 0.0941. Work on GGCCGGCAUGGUCCCAGCAUACUCGCUGGCGCCGGCUGGGCAACAUUCCGAGGGGACCGUCCCCUCGGUAAUGGCGAAUGGGACCCA yielded a self-cleavage of 0.142. Work on GGCCGGCAUGGUCCCAGCAUGCUCGCUGGCGCCGGCUGGGCAACAUUCCGAGGGGACCGUCCCCUCGGUAAUGGCGAAUGGGACCCA yielded a self-cleavage of 0.166. In the case of GGCCGGCAUGGUCCCAGUCUCCUCGCUGGCGCCGGCUGGGCAACACUCCGAGGGGACCGUCCCCUCGGUAAUGGCGAAUGGGACCCA, the self-cleavage is reported as 0.374. Work on GGCCGGCAUGGUCCCAGUCUCCUCGCUGGCGCCGGCUGGGCAACAUUCCGAGGGGACCGCCCCCUCGGUAAUGGCGAAUGGGACCCA yielded a self-cleavage of 0.7. With GGCCGGCAUGGUCCCAGCAUCCUCGCUGGCGCCGGCUGGGCAACAUUCCGAGGGGCCCGUCCCCUCGGUAAUGGCGAAUGGGACCCA the self-cleavage was 0.173. With GGCCGGCAUGGUCCCAGCAUCCUCGAUGGCGCCGGCUGGGCAACAUUCCGAGGGGACCGUCCCCUCGGUAAUGGCGAAUGGGACCCA the self-cleavage was 0.462. Work on GGCCGGCAUGGUCCCAGCAUCCUCGGUGGCGCCGGCUGGGCAACAUUCCGAGGGGACCGUCCCCUCGGUAAUGGCGAAUGGGACCCA yielded a self-cleavage of 0.312. GGCCGGCAUGGUCCCAGCAUCCUCGCUGGCGCCGGCUGGGCAACAUUCCGAGGGGACCGUCCCCUCGGUAAUGGCGAAUGGGGCCCA showed a self-cleavage of 0.122. Variant GGCCGGCAUGGUCCCAGCAUCCUCGCUGGCGCCGGCUGGGCACCAUUCCGAGGGGACCGUCCCCUCGGUAAUGGCGAAUGGGACCCA has a self-cleavage of 0.0665. GGCCGGCAUGGUCCCAGCAUCCUCGCUGGCGCCGGCUGGGCAGCAUUCCGAGGGGACCGUCCCCUCGGUAAUGGCGAAUGGGACCCA showed a self-cleavage of 0.0354. GGCCGGCAUGGUCCCAGUCUCCUCGCUGGCGCCGGCUGGGCAACAUCCCGAGGGGACCGUCCCCUCGGUAAUGGCGAAUGGGACCCA gave a self-cleavage of 0.332. Variant GGCCGGCAUGGUCCCAGUCUCCUCGCUGGCGCCGGCUGGGCAACAUACCGAGGGGACCGUCCCCUCGGUAAUGGCGAAUGGGACCCA has a self-cleavage of 0.293.
